According to patent publication US10323078B2, “Isolated peptides and fragments thereof from fibrinogen for use as drugs, particularly in skin inflammatory diseases” (Universite Paris Descartes, priority 2015, dated 2019):
Ends that are not written are not given here.

How the values were obtained:
[1] = test system: NHEK cells; test: In vitro model of psoriasis: cytotoxicity by MTT assay; assay type: cell-based, human; conditions: all concentrations tested (1.52 to 12.2 μM)
Protocol: FIG. 30: Inhibition of Il-8 production by keratinocytes stimulated by Il-17, OSM and TNF-α. NHEK cells were stimulated by a combination of Il-17, OSM and TNF-α (3 ng/ml each) and treated with JAK inhibitor at 10 μM (positive control) or Fg1.1.1 at concentrations ranging from 1.52 to 12.2 μM for 48 h. Measurement of IL-8 production was realized by ELISA and cytotoxicity was determined by the MTT assay as described in Materials and Methods Control experiments were done with untreated and unstimulated NHEK cells (cell alone) and with untreated NHEK stimulated by the combination of Il-17, OSM and TNF-α. Data are means±S.D. of three individual experiments. […]
FIG. 31: Inhibition of hBD-2 production by keratinocytes stimulated by Il-17, OSM and TNF-α. […] Measurement of hBD-2 production was realized by ELISA and cytotoxicity was determined by the MTT assay as described in Materials and Methods Control experiments were done with untreated and unstimulated NHEK cells (cell alone) and with untreated NHEK stimulated by the combination of Il-17, OSM and TNF-α. […]
Crystal violet staining was used to determine the number of adherent cells in 96-well plates. […] After washing with PBS, 100% methanol was added, and the absorbance was measured spectrophotometrically at 540 nm on an ELISA multiwell reader. […] After thorough mixing, the absorbance was measured at 540 nm.

[2] = test system: NHEK cells; test: In vitro model of psoriasis: IL-8 release by keratinocytes stimulated by IL-17, OSM and TNF-α; assay type: cell-based, human; conditions: NHEK stimulated by IL-17, OSM and TNF-α (3 ng/ml each); 10 μM; 48 h
Protocol: (§1) FIG. 30: Inhibition of Il-8 production by keratinocytes stimulated by Il-17, OSM and TNF-α. NHEK cells were stimulated by a combination of Il-17, OSM and TNF-α (3 ng/ml each) and treated with JAK inhibitor at 10 μM (positive control) or Fg1.1.1 at concentrations ranging from 1.52 to 12.2 μM for 48 h. Measurement of IL-8 production was realized by ELISA and cytotoxicity was determined by the MTT assay as described in Materials and Methods Control experiments were done with untreated and unstimulated NHEK cells (cell alone) and with untreated NHEK stimulated by the combination of Il-17, OSM and TNF-α. Data are means±S.D. of three individual experiments. Statistical significance is indicated by * (P<0.05), ** (P<0.01), and *** (P<0.001), respectively.
(§2) For experiences using an in vitro model of psoriasis, cutaneous primary human keratinocytes (NHDK) were grown in culture medium for 24 hours. […]
(§3) Human IL-1ß, IL-8, IL-12, hBD-2, and TNF-α protein concentration was measured in the supernatants of stimulated cells using various ELISA Set kits (Ready-Set-Go kit from eBioscience for acne experiments, and for psoriasis experiments the Duo set IL-8 kit from R&D Systems and the BD-2 Human Development (hBD-2) from Peprotech) according to the manufacturer's instructions. […] The optical density was determined at 450 nm at a wavelength correction of 540 nm. […]

[3] = test system: NHEK cells; test: In vitro model of psoriasis: hBD-2 release by keratinocytes stimulated by IL-17, OSM and TNF-α; assay type: cell-based, human; conditions: NHEK stimulated by IL-17, OSM and TNF-α (5 ng/ml each); 10 μM; 72 h
Protocol: as §1, with “31:” for “30:”, “hBD-2” for “Il-8”, “(5” for “(3”, “72” for “48”, “hBD-2” for “IL-8”
as §2, §3

[4] = test system: Pfg; test: Western ligand blot with biotinylated Pfg; assay type: binding, Propionibacterium acnes; conditions: E. coli total protein after IPTG induction, 12.5% SDS-PAGE; biotinylated Pfg 0.1 μg/ml
Protocol: FIG. 5: Binding of P. acnes surface proteins to fibrinogen. (A) Various quantities of human fibrinogen (hFg) and bovine fibrinogen (bFg) were immobilized onto a 96-well polystyrene plate at 4° C. for 18 h and incubated with biotinylated Pfg at 0.1 μg/ml for 2 h at 23° C. Bovine serum albumin (BSA) was used as negative control. Bound material was detected by using the HRP-streptavidin conjugate. Peroxidase activity was measured by using the ABTS substrate at 405 nm. Proteins (10 μg per lane) were separated by 10% SDS-PAGE and detected by (B) Commassie blue staining, and transferred to nitrocellulose membrane and incubated with (C) HRP-streptavidine alone, and (D) biotinylated Pfg (0.1 μg/ml). Lanes 1: molecular weight standards. Lane 2: BSA. Lane 3: hFg. Lane 4: bFg.
FIG. 8: Cloning of Bß human fibrinogen fragments and binding with Pfg. (A) Cloning and expression of recombinant human Bß fibrinogen fragments Fg1, Fg2, Fg3 and Fg4. Fibrinogen fragments were obtained by RT-PCR and expression plasmids were constructed as described in Materials and Methods. (B) GST-fused proteins were expressed in E. coli, fractionated by 12.5% SDS-PAGE, and detected by Coomassie blue staining (B), and incubated with biotinylated Pfg (0.1 μg/ml) as described in Materials and Methods (C).
To characterize the interaction between P. acnes and ligands, we used biotinylated molecules in quantitative and qualitative assays. In a first set of assays, ECM ligands (fibrinogen, collagens I, IV, VI and VIII) were used as labelled proteins with biotin. In a second set of assays, P. acnes surface proteins (total extract and purified Pfg) were biotinylated. For quantitative analysis, unlabeled protein were diluted into 50 mM carbonate-bicarbonate, pH 9.6 buffer to yield a protein concentration ranging from 0.01 to 50 μg/ml, and then immobilized to 96-well polystyrene plates at 4° C. overnight. The wells were rinsed three times with 0.2 ml of PBS containing 0.05% Tween-20 (PBS-Tween). Biotinylated proteins (0.01 to 16 μg/ml in PBS-Tween) were added to the wells and incubated at room temperature for 1 h. The wells were rinsed three times with 0.2 ml of PBS-Tween. Peroxidase conjugated to streptavidin (0.5 μg/ml in PBS-Tween) was added and incubated for 30 min at room temperature. After washing, bound peroxidase was detected using the chromogenic peroxidase substrate ABTS. For qualitative analysis, unlabelled protein (10-75 μg per lane) were separated by SDS-PAGE and then transferred to nitrocellulose membranes (0.45 μm pore size), as described previously (Towbin, 1979). Membranes were then saturated overnight at 4° C. in PBS containing 5% BSA, 0.05% Tween-20 (PBT buffer). Binding activity was detected by incubating the membranes with 20 ml of PBT containing biotinylated proteins (0.1 μg/ml) for 2 h at room temperature followed by three washes with PBT. Bound biotinylated proteins were detected by incubating the membrane with peroxidase conjugated to streptavidin (0.5 μg/ml in PBT) for 1 h at room temperature. After washing, bound peroxidase activity was detected using 3,3′-diaminobenzidine in the presence of CoCl2 and H2O2 (Harlow and Lane, 1988).
Since it was shown that Pfg is recognized by fibrinogen, this ECM ligand was used to analyze the nature of this interaction. First it was analyzed the ability of fibrinogen to be recognized by purified Pfg (FIG. 5). Human and bovine Fg (hFg, bFg) were immobilized to polysterene plate and the binding activity of biotinylated Pfg was measured. […] It has been shown that fibrinogen is a glycoprotein containing both N- and O-linked glycans (Debeire 1985; Reid Townsend 1982; L'Hôte 1996). […] In parallel, deglycosylation was assessed by visualization of a shift in the mobility after electrophoresis separation and Coomassie blue staining (FIG. 6A, lanes 3 and 5) and also by using the RCA-I plant lectin able to recognize ß-linked galactosyl residues in terminal position (FIG. 6C) (Green, 1987). […]

[5] = test system: P. acnes RON strain; test: Adhesion assay, biotinylated P. acnes binding to monocytes (ThP1); assay type: cell-based, Propionibacterium acnes; conditions: monocytes (THP-1); bacteria pretreated 0.87 to 7 μM, 1 h at 37° C.
Protocol: FIG. 13: Dose-dependent inhibition of P. acnes RON binding to monocytes cell line. Biotinylated P. acnes RON strain at concentrations adjusted to 0.1 of absorbance at 600 nm was pre-treated with the recombinant peptides Fg1 and Fg2 and incubated 1 h at 37° C. with the human immortalized monocytes cell line ThP1. After removal of unbound bacteria, adhesion activity was detected at 410 nm. Data are means±S.D. of three separate experiments. Statistical significance is indicated by * (P<0.05), ** (P<0.01), *** (P<0.001), and **** (P<0.0001), respectively.
The bacterial suspension was adjusted at 600 nm to the desired concentration, pretreated with peptides Fg1 and Fg2 at the final concentration ranging from 0.87 to 7 μM for 1 h at 37° C. and deposited on the previously saturated cells with a solution of PBS SVF 2% for 2 h. After incubation for 1 h at 37° C., unbound bacteria are removed by 3 washes with PBS and fixed bacteria are detected by a streptavidin-peroxidase solution of 0.5 μg/ml for 30 min.
Whole P. acnes bacteria are labelled by biotinylation, pre-treated or not with the peptides and contacted with the various cell lines. After removal of the unfixed bacteria, the adhesion activity was measured spectrophotometrically by using the streptavidin-peroxidase conjugate and a chromogenic substrate. […]

[6] = test system: Pfg binding to fibrinogen; test: Inhibition of biotinylated Pfg binding to coated fibrinogen; parameters: species or system Propionibacterium acnes; conditions: biotinylated Pfg pretreated with increasing amount of recombinant peptide 1 h at 37° C.; fibrinogen coated 25 μg per well
Protocol: FIG. 9: Dose-dependent inhibition of biotinylated Pfg binding to fibrinogen by fibrinogen-derived peptide. Biotinylated PFg (0.4 mg) was pretreated with increasing amount of recombinant peptides Fg1 (♦), Fg2 (▪) or BSA as control (●) for 1 h at 37° C., and the binding activity to coated fibrinogen on polystyrene plate (25 μg per well) was evaluated. Results are expressed as mean±SD. Each point was done in quadruplet.
Since it has been shown that only Fg1 was able to recognize Pfg, biotinylated Pfg was pre-treated with various concentrations of purified Fg1 and tested its ability to recognize immobilized fibrinogen. Fg2 and BSA were used as neative controls (FIG. 9).

[7] = test system: HaCaT, NHDK, ThP1, MRC5 and HDF cell lines; test: Cell viability (MTT) after treatment with Fg1 and Fg2 recombinant peptides; assay type: cell-based, human; conditions: all 5 cell lines; 0.22 to 7 mM for 18 h at 37° C.
Protocol: FIG. 10: Evaluation of cell viability after treatment with the Fg1 and Fg2 recombinant peptides. Human immortalized and primary keratinocyte cell lines HaCaT and NHDK; immortalized monocytes cell line ThP1, and immortalized and primary fibroblast cell lines MRCS and HDF were incubated with Fg1 and Fg2 recombinant peptides with concentrations ranging from 0.22 to 7 mM for 18 h at 37° C. Cell viability was assessed using the MTT assay as described in Materials and Methods.
Crystal violet staining was used to determine the number of adherent cells in 96-well plates. Briefly, after incubation with the test compound, the culture medium was discarded and the cells were incubated with a 0.05% crystal violet solution (Sigma) for 30 min at room temperature. After washing with PBS, 100% methanol was added, and the absorbance was measured spectrophotometrically at 540 nm on an ELISA multiwell reader. The MTT ([…]) assay was performed to test cell viability in 96-well plates. […] After thorough mixing, the absorbance was measured at 540 nm.
Whole P. acnes bacteria are labelled by biotinylation, pre-treated or not with the peptides and contacted with the various cell lines. After removal of the unfixed bacteria, the adhesion activity was measured spectrophotometrically by using the streptavidin-peroxidase conjugate and a chromogenic substrate.

## LLLCVFLVKSQGVND [Fg1.1.1, LLLCVFLVKSQGVND]
[1]
  Effect on cell viability (MTT): no effect on cell viability

## Jak Inhibitor I
[2]
  Inhibition of IL-8 release: 67%
[3]
  Inhibition of hBD-2 release: 80%

B1: DAGGCLHADPDLGVLCPTGCQLQEALLQQERPIRNSVDELNNNVEAVSQTSSSSFQYMYLLKDLWQKRQKQVKDNENVVNEYSSELEKHQLYIDETVNSNIPTNLRVLRSILENLRSKIQKLESDVSAQMEYCRTPCTVSCNIPVVS (protein)
chain: DAGGCLHADPDLGVLCPTGCQLQEALLQQERPIRNSVDELNNNVEAVSQTSSSSFQYMYLLKDLWQKRQKQVKDNENVVNEYSSELEKHQLYIDETVNSNIPTNLRVLRSILENLRSKIQKLESDVSAQMEYCRTPCTVSCNIPVVS
modifications: fragment Fg2
notes: recombinant fragment of Bß sub-unit of human fibrinogen, used as negative control
[4]
  Recognition of GST-fused recombinant Bß fibrinogen fragments by biotinylated Pfg: only Fg1 was recognized
[5]
  Inhibition of adhesion of P. acnes RON strain: no anti-adhesive activity
[6]
  Inhibition of the recognition between Pfg and human fibrinogen: did not
[7]
  Cytotoxic activity (cell viability, MTT): no cytotoxic activity
